In article PMC10651892, “A supramolecular system mimicking the infection process of an enveloped virus through membrane fusion” (Scientific Reports, 2023):
Where no end group is shown, it is not given here. TMR‑5‑maleimide = tetramethylrhodamine-5-maleimide

B1: TMR-β-annulus-EE peptide (peptide)
peptide: C(TMR‑5‑maleimide)INHVGGTGGAIMAPVAVTRQLVGSEE
notes: Cys added at the N-terminus to carry the TMR dye; 24-residue β-annulus peptide involved in the formation of the dodecahedral internal skeleton of tomato bushy stunt virus (capsid protein); two anionic amino acids (Glu) added at the C-terminal side by design; also called Cys-β-annulus-EE peptide modified with TMR-maleimide; source: synthetic peptide (Fmoc solid-phase method; Michael addition of …)
B2: β-annulus-EE peptide (peptide)
peptide: INHVGGTGGAIMAPVAVTRQLVGSEE
notes: 24-residue β-annulus peptide involved in the formation of the dodecahedral internal skeleton of tomato bushy stunt virus (capsid protein); two anionic amino acids (Glu) added at the C-terminal side by design; Self-assembles into the anionic artificial viral capsid; also called 26-residue β-annulus-EE peptide; source: synthetic peptide (Fmoc solid-phase method, purified by reverse-phase HPLC)

What was measured:
β-annulus-EE peptide = biological target: B2; assay: dynamic light scattering; 90 μM β-annulus-EE peptide and 10 μM TMR-β-annulus-EE peptide co-assembled (molar ratio 9:1) in 10 mM phosphate buffer (pH 7.0) containing 1% DMSO, 25 °C; details: both partners purified
[1] = biological target: the molecule itself; assay: as above

| Binder | binding result (β-annulus-EE peptide) | binding result [1] |
| --- | --- | --- |
| B1 | binds | – |
| B2 | – | binds |
